Assays:
HeLa Kyoto [1] = experiment: thermal stability score vs G1/S (z-score of summed log2 fold changes over temperatures); higher = more thermally stable than in G1/S
HeLa Kyoto [2] = experiment: solubility change mitosis vs G1/S (difference of NP-40 vs SDS log2 ratios) (log2 ratio difference); higher = more soluble in mitosis
HeLa Kyoto [3] = experiment: melting temperature (median over replicates), in situ; higher = more thermally stable
HeLa Kyoto [4] = experiment: solubility in G1/S (NP-40 vs SDS abundance) (log2 ratio); higher = more soluble; settings: cell cycle stage: G1/S
[5] = cell cycle stage: early G1 (4.5 h after nocodazole release)
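Throughout, for melting temperature (median over replicates), in situ: HeLa Kyoto cells synchronized by double thymidine or nocodazole block, proteins quantified by TMT10plex mass spectrometry, three independent biological replicates.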
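Throughout, for solubility change mitosis vs G1/S (difference of NP-40 vs SDS log2 ratios): synchronized HeLa Kyoto cells (double thymidine block for G1/S, nocodazole release for mitosis), protein amounts in NP-40 versus SDS lysates quantified by mass spectrometry, three biological replicates.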
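Throughout, for solubility in G1/S (NP-40 vs SDS abundance): HeLa Kyoto cells arrested at G1/S by double thymidine block, proteins quantified by TMT10plex mass spectrometry in mild NP-40 versus SDS extracts, three biological replicates.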
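Throughout, for thermal stability score vs G1/S (z-score of summed log2 fold changes over temperatures): synchronized HeLa Kyoto cells, proteins quantified by TMT10plex mass spectrometry, three biological replicates, mitosis taken 0.5 h after nocodazole release, G1/S directly after double thymidine block.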

Row | Sequence | thermal stability score (HeLa Kyoto [1]; [5]) | thermal stability score (HeLa Kyoto [1]; cell cycle stage: mitosis) | solubility change mitosis (log2) (HeLa Kyoto [2]) | melting temperature (HeLa Kyoto [3]; cell cycle stage: G1/S) | melting temperature (HeLa Kyoto [3]; cell cycle stage: mitosis) | solubility in G1/S (log2) (HeLa Kyoto [4])
1 | MTSSRLWFSLLLAAAFAGRATALWPWPQNFQTSDQRYVLYPNNFQFQYDVSSAAQPGCSVLDEAFQRYRDLLFGSGSWPRPYLTGKRHTLEKNVLVVSVVTPGCNQLPTLESVENYTLTINDDQCLLLSETVWGALRGLETFSQLVWKSAEGTFFINKTEIEDFPRFPHRGLLLDTSRHYLPLSSILDTLDVMAYNKLNVFHWHLVDDPSFPYESFTFPELMRKGSYNPVTHIYTAQDVKEVIEYARLRGIRVLAEFDTPGHTLSWGPGIPGLLTPCYSGSEPSGTFGPVNPSLNNTYEFMSTFFLEVSSVFPDFYLHLGGDEVDFTCWKSNPEIQDFMRKKGFGEDFKQLESFYIQTLLDIVSSYGKGYVVWQEVFDNKVKIQPDTIIQVWREDIPVNYMKELELVTKAGFRALLSAPWYLNRISYGPDWKDFYIVEPLAFEGTPEQKALVIGGEACMWGEYVDNTNLVPRLWPRAGAVAERLWSNKLTSDLTFAYERLSHFRCELLRRGVQAQPLNVGFCEQEFEQT [HEXA] | 0.922 | 0.624 | -0.164 | 56.7 °C | 56.1 °C | 0.295
2 | MTTETGPDSEVKKAQEEAPQQPEAAAAVTTPVTPAGHGHPEANSNEKHPSQQDTRPAEQSLDMEEKDYSEADGLSERTTPSKAQKSPQKIAKKYKSAICRVTLLDASEYECEVEKHGRGQVLFDLVCEHLNLLEKDYFGLTFCDADSQKNWLDPSKEIKKQIRSSPWNFAFTVKFYPPDPAQLTEDITRYYLCLQLRADIITGRLPCSFVTHALLGSYAVQAELGDYDAEEHVGNYVSELRFAPNQTRELEERIMELHKTYRGMTPGEAEIHFLENAKKLSMYGVDLHHAKDSEGIDIMLGVCANGLLIYRDRLRINRFAWPKILKISYKRSNFYIKIRPGEYEQFESTIGFKLPNHRSAKRLWKVCIEHHTFFRLVSPEPPPKGFLVMGSKFRYSGRTQAQTRQASALIDRPAPFFERSSSKRYTMSRSLDGAEFSRPASVSENHDAGPDGDKRDEDGESGGQRSEAEEGEVRTPTKIKELKPEQETTPRHKQEFLDKPEDVLLKHQASINELKRTLKEPNSKLIHRDRDWERERRLPSSPASPSPKGTPEKANERAGLREGSEEKVKPPRPRAPESDTGDEDQDQERDTVFLKDNHLAIERKCSSITVSSTSSLEAEVDFTVIGDYHGSAFEDFSRSLPELDRDKSDSDTEGLLFSRDLNKGAPSQDDESGGIEDSPDRGACSTPDMPQFEPVKTETMTVSSLAIRKKIEPEAVLQTRVSAMDNTQQVDGSASVGREFIATTPSITTETISTTMENSLKSGKGAAAMIPGPQTVATEIRSLSPIIGKDVLTSTYGATAETLSTSTTTHVTKTVKGGFSETRIEKRIIITGDEDVDQDQALALAIKEAKLQHPDMLVTKAVVYRETDPSPEERDKKPQES [EPB41L1] | 0.332 | 0.235 | -0.0516 | 49.6 °C | 50 °C | -0.0349
3 | MTTPALLPLSGRRIPPLNLGPPSFPHHRATLRLSEKFILLLILSAFITLCFGAFFFLPDSSKHKRFDLGLEDVLIPHVDAGKGAKNPGVFLIHGPDEHRHREEEERLRNKIRADHEKALEEAKEKLRKSREEIRAEIQTEKNKVVQEMKIKENKPLPPVPIPNLVGIRGGDPEDNDIREKREKIKEMMKHAWDNYRTYGWGHNELRPIARKGHSPNIFGSSQMGATIVDALDTLYIMGLHDEFLDGQRWIEDNLDFSVNSEVSVFEVNIRFIGGLLAAYYLSGEEIFKIKAVQLAEKLLPAFNTPTGIPWAMVNLKSGVGRNWGWASAGSSILAEFGTLHMEFIHLSYLTGDLTYYKKVMHIRKLLQKMDRPNGLYPNYLNPRTGRWGQYHTSVGGLGDSFYEYLLKAWLMSDKTDHEARKMYDDAIEAIEKHLIKKSRGGLTFIGEWKNGHLEKKMGHLACFAGGMFALGADGSRADKAGHYLELGAEIARTCHESYDRTALKLGPESFKFDGAVEAVAVRQAEKYYILRPEVIETYWYLWRFTHDPRYRQWGWEAALAIEKYCRVNGGFSGVKDVYSSTPTHDDVQQSFFLAETLKYLYLLFSGDDLLPLDHWVFNTEAHPLPVLHLANTTLSGNPAVR [MAN1A2] | -0.726 | -1.7 | -0.0976 | 54.1 °C | 54.3 °C | -0.0642
4 | MTTYLEFIQQNEERDGVRFSWNVWPSSRLEATRMVVPVAALFTPLKERPDLPPIQYEPVLCSRTTCRAVLNPLCQVDYRAKLWACNFCYQRNQFPPSYAGISELNQPAELLPQFSSIEYVVLRGPQMPLIFLYVVDTCMEDEDLQALKESMQMSLSLLPPTALVGLITFGRMVQVHELGCEGISKSYVFRGTKDLSAKQLQEMLGLSKVPLTQATRGPQVQQPPPSNRFLQPVQKIDMNLTDLLGELQRDPWPVPQGKRPLRSSGVALSIAVGLLECTFPNTGARIMMFIGGPATQGPGMVVGDELKTPIRSWHDIDKDNAKYVKKGTKHFEALANRAATTGHVIDIYACALDQTGLLEMKCCPNLTGGYMVMGDSFNTSLFKQTFQRVFTKDMHGQFKMGFGGTLEIKTSREIKISGAIGPCVSLNSKGPCVSENEIGTGGTCQWKICGLSPTTTLAIYFEVVNQHNAPIPQGGRGAIQFVTQYQHSSGQRRIRVTTIARNWADAQTQIQNIAASFDQEAAAILMARLAIYRAETEEGPDVLRWLDRQLIRLCQKFGEYHKDDPSSFRFSETFSLYPQFMFHLRRSSFLQVFNNSPDESSYYRHHFMRQDLTQSLIMIQPILYAYSFSGPPEPVLLDSSSILADRILLMDTFFQILIYHGETIAQWRKSGYQDMPEYENFRHLLQAPVDDAQEILHSRFPMPRYIDTEHGGSQARFLLSKVNPSQTHNNMYAWGQESGAPILTDDVSLQVFMDHLKKLAVSSAA [SEC23A] | -0.157 | 0.129 | -0.0745 | 50 °C | 50.2 °C | -0.0681
5 | MVAACRSVAGLLPRRRRCFPARAPLLRVALCLLCWTPAAVRAVPELGLWLETVNDKSGPLIFRKTMFNSTDIKLSVKSFHCSGPVKFTIVWHLKYHTCHNEHSNLEELFQKHKLSVDEDFCHYLKNDNCWTTKNENLDCNSDSQVFPSLNNKELINIRNVSNQERSMDVVARTQKDGFHIFIVSIKTENTDASWNLNVSLSMIGPHGYISASDWPLMIFYMVMCIVYILYGILWLTWSACYWKDILRIQFWIAAVIFLGMLEKAVFYSEYQNISNTGLSTQGLLIFAELISAIKRTLARLLVIIVSLGYGIVKPRLGTVMHRVIGLGLLYLIFAAVEGVMRVIGGSNHLAVVLDDIILAVIDSIFVWFIFISLAQTMKTLRLRKNTVKFSLYRHFKNTLIFAVLASIVFMGWTTKTFRIAKCQSDWMERWVDDAFWSFLFSLILIVIMFLWRPSANNQRYAFMPLIDDSDDEIEEFMVTSENLTEGIKLRASKSVSNGTAKPATSENFDEDLKWVEENIPSSFTDVALPVLVDSDEEIMTRSEMAEKMFSSEKIM [TMEM87B] | -3.16 | -3.29 | -0.177 | 55.1 °C | 54.9 °C | -0.12
6 | MVADPPRDSKGLAAAEPTANGGLALASIEDQGAAAGGYCGSRDQVRRCLRANLLVLLTVVAVVAGVALGLGVSGAGGALALGPERLSAFVFPGELLLRLLRMIILPLVVCSLIGGAASLDPGALGRLGAWALLFFLVTTLLASALGVGLALALQPGAASAAINASVGAAGSAENAPSKEVLDSFLDLARNIFPSNLVSAAFRSYSTTYEERNITGTRVKVPVGQEVEGMNILGLVVFAIVFGVALRKLGPEGELLIRFFNSFNEATMVLVSWIMWYAPVGIMFLVAGKIVEMEDVGLLFARLGKYILCCLLGHAIHGLLVLPLIYFLFTRKNPYRFLWGIVTPLATAFGTSSSSATLPLMMKCVEENNGVAKHISRFILPIGATVNMDGAALFQCVAAVFIAQLSQQSLDFVKIITILVTATASSVGAAGIPAGGVLTLAIILEAVNLPVDHISLILAVDWLVDRSCTVLNVEGDALGAGLLQNYVDRTESRSTEPELIQVKSELPLDPLPVPTEEGNPLLKHYRGPAGDATVASEKESVM [SLC1A5] | -1.47 | -1.94 | -0.123 | – | 65.7 °C | 0.196
7 | MVAGSDAGRALGVLSVVCLLHCFGFISCFSQQIYGVVYGNVTFHVPSNVPLKEVLWKKQKDKVAELENSEFRAFSSFKNRVYLDTVSGSLTIYNLTSSDEDEYEMESPNITDTMKFFLYVLESLPSPTLTCALTNGSIEVQCMIPEHYNSHRGLIMYSWDCPMEQCKRNSTSIYFKMENDLPQKIQCTLSNPLFNTTSSIILTTCIPSSGHSRHRYALIPIPLAVITTCIVLYMNGILKCDRKPDRTNSN [CD58] | -0.387 | -1.23 | 0.319 | 55.3 °C | – | -0.813
8 | MVDLTQVMDDEVFMAFASYATIILSKMMLMSTATAFYRLTRKVFANPEDCVAFGKGENAKKYLRTDDRVERVRRAHLNDLENIIPFLGIGLLYSLSGPDPSTAILHFRLFVGARIYHTIAYLTPLPQPNRALSFFVGYGVTLSMAYRLLKSKLYL [MGST1] | 0.0202 | -1.77 | -0.17 | 56.8 °C | 58 °C | -0.321
9 | MVEADRPGKLFIGGLNTETNEKALETVFGKYGRIVEVLLIKDRETNKSRGFAFVTFESPADAKDAARDMNGKSLDGKAIKVEQATKPSFERGRHGPPPPPRSRGPPRGFGAGRGGSGGTRGPPSRGGHMDDGGYSMNFNMSSSRGPLPVKRGPPPRSGGPSPKRSAPSGLVRSSSGMGGRAPLSRGRDSYGGPPRREPLPSRRDVYLSPRDDGYSTKDSYSSRDYPSSRDTRDYAPPPRDYTYRDYGHSSSRDDYPSRGYGDRDGYGRDRDYSDHPSGGSYRDSYESYGNSRSAPLTRGPPPSYGGSSRYDDYSSSRDGYGGSRDSYSSSRSDLYSSCDRVGRQERGLPPSVERGYPSSRDSYSSSSRGAPRGAGPGGSRSDRGGGRSRY [RBMXL1] | -0.08 | 0.0725 | 0.637 | 46.5 °C | 51 °C | -0.598
